Reference: article PMC10439124

Molecular target: Pfs230D1-E2p fusion protein (Pfs230D1-linker-E2p), 60-copy nanoparticle (Plasmodium falciparum (3D7) | Geobacillus stearothermophilus) (UniProt P68874)
Assay: SEC-MALS + other: SEC-SAXS; SIBYLS beamline 12.3.1; the sample was injected into a size-exclusion column and a post-column splitter directed the eluate to the MALS and SAXS systems; molecular weight from Astra 6 (MALS) and PRIMUS/ATSAS (SAXS)

“Pfs230D1-E2p fusion protein (Pfs230D1-linker-E2p), 60-copy nanoparticle (from UniProt P68874 542-736)” was tested, and the stoichiometry N was 60.
